This passage reports stoichiometry N results from doi:10.1101/2023.03.13.532365.

The assay has as its target *DsCDTCM, exported bifunctional cyclohexadienyl dehydratase-chorismate mutase fusion enzyme of Duganella sacchari (Duganella sacchari). The assay can be described thus: crystal structure.

One may read the stoichiometry N as the number of molecules, sites or subunits per partner or assembly. With “*DsCDTCM, exported bifunctional cyclohexadienyl dehydratase-chorismate mutase fusion enzyme of Duganella sacchari”, the stoichiometry N is 2.
